From US7375083B2, “Pharmaceutical compositions for prevention of overdose or abuse” (Shire LLC, priority 2003, dated 2008)
Where a SMILES comes first, the peptide text is derived from it. The star is where a group is joined. X1 = COc1ccc2c3c1O[C@H]1C(O*)=CC[C@H]4[C@@H](C2)N(C)CC[C@]314

Key:
[1] = Oral bioavailability of hydrocodone conjugates in rats, LC/MS/MS; settings: oral; for Percent HC + HM (AUC) / Percent HC + HM (Cmax): relative to parameter following hydrocodone bitartrate
[2] = Intravenous bioavailability of hydrocodone conjugates in rats, LC/MS/MS; settings: intravenous
[3] = 5 mg/kg hydrocodone base content, 0 h
[4] = 5 mg/kg hydrocodone base content, 0.1 h
[5] = 5 mg/kg hydrocodone base content, 0.5 h
[6] = 5 mg/kg hydrocodone base content, 1.0 h
[7] = 5 mg/kg hydrocodone base content, 2.0 h
[8] = 5 mg/kg hydrocodone base content, 4.0 h
[9] = 25 mg/kg hydrocodone base content
[10] = 25 mg/kg hydrocodone base content, 0 h
[11] = 25 mg/kg hydrocodone base content, 0.1 h
[12] = 25 mg/kg hydrocodone base content, 0.5 h
[13] = 25 mg/kg hydrocodone base content, 1.0 h
[14] = 25 mg/kg hydrocodone base content, 2.0 h
[15] = 25 mg/kg hydrocodone base content, 4.0 h
[16] = 1 mg/kg dose, hydrocodone plus hydromorphone
[17] = 1 mg/kg dose, relative to hydrocodone bitartrate
[18] = 1 mg/kg hydrocodone base content
[19] = 1 mg/kg hydrocodone base content, 0 h
[20] = 1 mg/kg hydrocodone base content, 0.1 h
[21] = 1 mg/kg hydrocodone base content, 0.5 h
[22] = 1 mg/kg hydrocodone base content, 1.0 h
[23] = 1 mg/kg hydrocodone base content, 2.0 h
[24] = 1 mg/kg hydrocodone base content, 4.0 h

## CC[C@H](C)[C@H](NC(=O)[C@H](Cc1ccccc1)NC(=O)[C@H](Cc1ccccc1)NC(=O)[C@H](Cc1ccc(O)cc1)NC(=O)[C@@H](N)Cc1ccc(O)cc1)C(=O)OC1=CC[C@H]2[C@H]3Cc4ccc(OC)c5c4[C@@]2(CCN3C)[C@H]1O5 [YYFFI[SEQ ID NO: 8]-HC, Tyr-Tyr-Phe-Phe-Ile[SEQ ID NO: 8]-(6-O)-Hydrocodone] (H-YYFFI-X1)
[1]; 5 mg/kg hydrocodone base content
  Hydromorphone Cmax, Percent HM relative to hydrocodone bitartrate: 77%
[1]; [3]
  Mean hydrocodone plus hydromorphone concentration: 0 ng/mL
  Mean hydromorphone concentration: 0 ng/mL
[1]; 5 mg/kg hydrocodone base content, 0 Hours
  Mean hydrocodone concentration: 0 ng/mL
[1]; 5 mg/kg hydrocodone base content, 0.1 Hours
  Mean hydrocodone concentration: 26.6 ng/mL
[1]; 5 mg/kg hydrocodone base content, 0.5 Hours
  Mean hydrocodone concentration: 22.5 ng/mL
[1]; 5 mg/kg hydrocodone base content, 1.0 Hours
  Mean hydrocodone concentration: 15.1 ng/mL
[1]; 5 mg/kg hydrocodone base content, 2.0 Hours
  Mean hydrocodone concentration: 10.3 ng/mL
[1]; 5 mg/kg hydrocodone base content, 4.0 Hours
  Mean hydrocodone concentration: 3.6 ng/mL
[1]; [4]
  Mean hydrocodone plus hydromorphone concentration: 27.1 ng/mL
  Mean hydromorphone concentration: 0.49 ng/mL
[1]; [5]
  Mean hydrocodone plus hydromorphone concentration: 32.9 ng/mL
  Mean hydromorphone concentration: 10.41 ng/mL
[1]; [6]
  Mean hydrocodone plus hydromorphone concentration: 19.9 ng/mL
  Mean hydromorphone concentration: 4.82 ng/mL
[1]; [7]
  Mean hydrocodone plus hydromorphone concentration: 13.5 ng/mL
  Mean hydromorphone concentration: 3.17 ng/mL
[1]; [8]
  Mean hydrocodone plus hydromorphone concentration: 4.7 ng/mL
  Mean hydromorphone concentration: 1.07 ng/mL
[1]; 5 mg/kg
  Percent HC + HM (AUC): 20%
  Percent HC + HM (Cmax): 4%
[1]; [9]
  Hydrocodone AUC: 135.0
  Hydrocodone Cmax: 41.4 ng/mL
  Hydrocodone plus hydromorphone Cmax: 49.4 ng/mL
  Hydromorphone AUC, Percent HM relative to hydrocodone bitartrate: 33%
  Hydromorphone Cmax: 16.2 ng/mL
  Hydromorphone Cmax, Percent HM relative to hydrocodone bitartrate: 37%
[1]; [10]
  Mean hydrocodone plus hydromorphone concentration: 0 ng/mL
  Mean hydromorphone concentration: 0 ng/mL
[1]; 25 mg/kg hydrocodone base content, 0 Hours
  Mean hydrocodone concentration: 0 ng/mL
[1]; 25 mg/kg hydrocodone base content, 0.1 Hours
  Mean hydrocodone concentration: 41.4 ng/mL
[1]; 25 mg/kg hydrocodone base content, 0.5 Hours
  Mean hydrocodone concentration: 23.3 ng/mL
[1]; 25 mg/kg hydrocodone base content, 1.0 Hours
  Mean hydrocodone concentration: 31.0 ng/mL
[1]; 25 mg/kg hydrocodone base content, 2.0 Hours
  Mean hydrocodone concentration: 43.9 ng/mL
[1]; 25 mg/kg hydrocodone base content, 4.0 Hours
  Mean hydrocodone concentration: 25.0 ng/mL
[1]; [11]
  Mean hydrocodone plus hydromorphone concentration: 49.4 ng/mL
  Mean hydromorphone concentration: 8.00 ng/mL
[1]; [12]
  Mean hydrocodone plus hydromorphone concentration: 33.7 ng/mL
  Mean hydromorphone concentration: 10.35 ng/mL
[1]; [13]
  Mean hydrocodone plus hydromorphone concentration: 43.7 ng/mL
  Mean hydromorphone concentration: 12.70 ng/mL
[1]; [14]
  Mean hydrocodone plus hydromorphone concentration: 60.1 ng/mL
  Mean hydromorphone concentration: 16.22 ng/mL
[1]; [15]
  Mean hydrocodone plus hydromorphone concentration: 34.0 ng/mL
  Mean hydromorphone concentration: 8.98 ng/mL
[1]; 25 mg/kg
  Percent HC + HM (AUC): 32%
  Percent HC + HM (Cmax): 10%
[1]; rat, 5 mg/kg
  Peak levels and bioavailability: substantially decreased
[2]; 1 mg/kg dose, 5 Minutes
  hydrocodone plus hydromorphone concentration: 171 ng/mL
[2]; 1 mg/kg dose, 15 Minutes
  hydrocodone plus hydromorphone concentration: 28 ng/mL
[2]; 1 mg/kg dose, 30 Minutes
  hydrocodone plus hydromorphone concentration: 22 ng/mL
[2]; 1 mg/kg dose, 60 Minutes
  hydrocodone plus hydromorphone concentration: 18 ng/mL
[2]; [16]
  AUC (ng/ml h) 0-1 h: 40 ng·h/mL
  Cmax: 171 ng/mL
[2]; [17]
  Percent HC (AUC): 29%
  Percent HC (Cmax): 72%
[2]; [18]
  HC (hydrocodone) AUC, Percent relative to hydrocodone bitartrate: 19%
  HC (hydrocodone) Cmax: 8.7 ng/mL
  HC (hydrocodone) Cmax, Percent relative to hydrocodone bitartrate: 20.2%
  HC + HM AUC, Percent relative to hydrocodone bitartrate: 36%
  HC + HM Cmax: 22.6 ng/mL
  HC + HM Cmax, Percent relative to hydrocodone bitartrate: 10.8%
  HM (hydromorphone) AUC, Percent relative to hydrocodone bitartrate: 33%
  HM (hydromorphone) Cmax: 31.3 ng/mL
  HM (hydromorphone) Cmax, Percent relative to hydrocodone bitartrate: 12.4%
[2]; [19]
  Mean HC (hydrocodone) concentration: 0 ng/mL
  Mean HC + HM concentration: 0 ng/mL
  Mean HM (hydromorphone) concentration: 0 ng/mL
[2]; [20]
  Mean HC (hydrocodone) concentration: 8.75 ng/mL
  Mean HC + HM concentration: 22.6 ng/mL
  Mean HM (hydromorphone) concentration: 31.3 ng/mL
[2]; [21]
  Mean HC (hydrocodone) concentration: 1.44 ng/mL
  Mean HC + HM concentration: 13.5 ng/mL
  Mean HM (hydromorphone) concentration: 14.9 ng/mL
[2]; [22]
  Mean HC (hydrocodone) concentration: 0.92 ng/mL
  Mean HC + HM concentration: 13.0 ng/mL
  Mean HM (hydromorphone) concentration: 13.9 ng/mL
[2]; [23]
  Mean HC (hydrocodone) concentration: 0.41 ng/mL
  Mean HC + HM concentration: 13.1 ng/mL
  Mean HM (hydromorphone) concentration: 13.5 ng/mL
[2]; [24]
  Mean HC (hydrocodone) concentration: 0.33 ng/mL
  Mean HC + HM concentration: 8.5 ng/mL
  Mean HM (hydromorphone) concentration: 8.8 ng/mL
